Literature values, collected in PMC6359047.

Biological target: MT1-MMP (Homo sapiens) (UniProt P50281)

TIMP-1, sequence (P01033 24-207): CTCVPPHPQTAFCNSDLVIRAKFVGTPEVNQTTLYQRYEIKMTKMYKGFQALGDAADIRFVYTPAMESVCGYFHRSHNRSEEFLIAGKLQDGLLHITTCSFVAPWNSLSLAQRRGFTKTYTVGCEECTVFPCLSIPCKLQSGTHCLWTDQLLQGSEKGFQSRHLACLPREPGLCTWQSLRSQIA

Substance: TIMP-1 (from UniProt P01033)
- Ki: 0.178 µM
